Experimental data: patent US20240239864A1

Molecular target: HLA-A2 (HLA-A*02:01) on cells (T2 cells; K562A2 cells) (human)
Assay: T2 peptide-binding assay: T2 cells with peptide at 100 µg/mL overnight, surface HLA-A2 by flow cytometry (T2 only: 3.34E+05)
Settings: remark: other sources report otherwise

Mean Fluorescence Intensity (surface HLA-A2): 305000
Binder: NTDNNLAVY (peptide, UniProt Q5H943 52-60, looked up) [KKLC1 p52-60 peptide (HLA-A1 restricted control), Q5H943 52-60]
